Test results as given in US7354588B1, “Functional derivatives of ICAM-1 with altered ability to bind LFA-1 or HRV” (Dana Farber Cancer Institute, priority 1987, dated 2008).

Key:
[1] = test system: CL203 mAb; test: Indirect immunofluorescence flow cytofluorometry: mAb CL203 binding to COS cells expressing ICAM-1 mutants (SLFI, % WT); format: cell-based; conditions: for binding of MAb CL203 (in words): COS cells expressing the mutant, relative to wild type; for Cl203 % WT (SLFI): SLFI of CL203 for mutant normalized to wild type CL203 SLFI, level of expression
Protocol: (§1) For HRV binding studies, COS cells were reseeded in a 24 well plate. One day later, the confluent monolayer was washed twice with 1 ml of RPMI 1640/10 mM MgCl2/25 mM Hepes pH 7.3 (rhinovirus-14 buffer). Transfected COS cells were labeled with 51Cr for binding to LFA-1 coated plastic as previously described (Staunton, D. E., et al., Nature 339:61-64 (1989). Immunoprecipitation and indirect immunofluorescence was performed using ICAM-1 MAb RR1/1 (Rothlein, R., et al., J. Immunol. 137:1270-1274 (1986)), R6.5 (Rothlein, R., et al., J. Immunol. 141:1665-1669 (1988)), LB-1 (Clark, E. A., et al., Hum. Immunol. 16:100-113 (1986)) and CL203 (Maio, M., J. Immunol. 143:181-188 (1989), all of which references are incorporated herein by reference).
(§2) Binding of RR1, R6.5, and LB-2 mAb was normalized to binding of CL203 mAb using Specific Linear Fluorescence Intensity (SLFI): % CL203=(mAbSLFI)×100)/CL203mABSLFI
(§3) In Table 25, the notation for the mutations uses the one-letter code for the wild-type sequence followed by a slash and the one-letter code for the corresponding mutant sequence. The position of the first amino acid within the sequence is indicated. Wild type residues precede the slash followed by the residues they were substituted for in the mutant. COS cells expressing ICAM-1 mutants were tested for adherence to LFA-1 coated plastic and for binding 35S met-labeled HRV14. LFA-1 and HRV14 binding is normalized for percent of cells expressing mutant ICAM-1 and for binding of wild type expressing cells. Binding is presented as mean and standard error (SE) for multiple experiments (n). Effects of two-fold or greater were reproducible in LFA-1, HRV and mAb binding assays and thus considered significant (bold and underlined). The specific linear fluorescence intensity (SLFI) of CL203 for each mutant is normalized to that of wild type CL203 SLFI (% WT) as discussed above. The SLFI of RR1/1, R6.5 and LB-2 SLFI is normalized to the CL203 SLFI of the mutant (% CL203) as described above.

[2] = test system: RR1/1 mAb; test: Indirect immunofluorescence flow cytofluorometry: mAb RR1/1 binding to COS cells expressing ICAM-1 mutants (SLFI, % CL203); format: cell-based; conditions: SLFI normalized to CL203 SLFI of the mutant
Protocol: as §1, §2, §3

[3] = biological target: T1, LFA-1 (Homo sapiens, UniProt P05107+P20701); test: Adherence of COS cells expressing ICAM-1 or ICAM-1 mutants to plastic-bound purified LFA-1; format: cell-based; conditions: for LFA-1 Binding %: COS cells expressing ICAM-1 mutant adhering to LFA-1 coated plastic, normalized for percent of cells expressing mutant and for wild type binding, mean
T1 construct: endogenous in cells

[4] = test system: R6.5 mAb; test: Indirect immunofluorescence flow cytofluorometry: mAb R6.5 binding to COS cells expressing ICAM-1 mutants (SLFI, % CL203); format: cell-based; conditions: SLFI normalized to CL203 SLFI of the mutant
Protocol: as §1, §2, §3

[5] = test system: LB-2 mAb; test: Indirect immunofluorescence flow cytofluorometry: mAb LB-2 binding to COS cells expressing ICAM-1 mutants (SLFI, % CL203); format: cell-based; conditions: SLFI normalized to CL203 SLFI of the mutant
Protocol: as §1, §2, §3

[6] = test system: HRV14; test: Binding of [^35S]-Met labeled HRV14 to COS cells expressing ICAM-1 mutants; format: cell-based, human rhinovirus 14; conditions: for HRV Binding %: 35S met-labeled HRV14 binding to COS cells expressing ICAM-1 mutant, normalized for percent of cells expressing mutant and for wild type binding, mean
[7] = COS cells expressing the mutant, relative to wild type

T1 sequence (P20701 26-1170): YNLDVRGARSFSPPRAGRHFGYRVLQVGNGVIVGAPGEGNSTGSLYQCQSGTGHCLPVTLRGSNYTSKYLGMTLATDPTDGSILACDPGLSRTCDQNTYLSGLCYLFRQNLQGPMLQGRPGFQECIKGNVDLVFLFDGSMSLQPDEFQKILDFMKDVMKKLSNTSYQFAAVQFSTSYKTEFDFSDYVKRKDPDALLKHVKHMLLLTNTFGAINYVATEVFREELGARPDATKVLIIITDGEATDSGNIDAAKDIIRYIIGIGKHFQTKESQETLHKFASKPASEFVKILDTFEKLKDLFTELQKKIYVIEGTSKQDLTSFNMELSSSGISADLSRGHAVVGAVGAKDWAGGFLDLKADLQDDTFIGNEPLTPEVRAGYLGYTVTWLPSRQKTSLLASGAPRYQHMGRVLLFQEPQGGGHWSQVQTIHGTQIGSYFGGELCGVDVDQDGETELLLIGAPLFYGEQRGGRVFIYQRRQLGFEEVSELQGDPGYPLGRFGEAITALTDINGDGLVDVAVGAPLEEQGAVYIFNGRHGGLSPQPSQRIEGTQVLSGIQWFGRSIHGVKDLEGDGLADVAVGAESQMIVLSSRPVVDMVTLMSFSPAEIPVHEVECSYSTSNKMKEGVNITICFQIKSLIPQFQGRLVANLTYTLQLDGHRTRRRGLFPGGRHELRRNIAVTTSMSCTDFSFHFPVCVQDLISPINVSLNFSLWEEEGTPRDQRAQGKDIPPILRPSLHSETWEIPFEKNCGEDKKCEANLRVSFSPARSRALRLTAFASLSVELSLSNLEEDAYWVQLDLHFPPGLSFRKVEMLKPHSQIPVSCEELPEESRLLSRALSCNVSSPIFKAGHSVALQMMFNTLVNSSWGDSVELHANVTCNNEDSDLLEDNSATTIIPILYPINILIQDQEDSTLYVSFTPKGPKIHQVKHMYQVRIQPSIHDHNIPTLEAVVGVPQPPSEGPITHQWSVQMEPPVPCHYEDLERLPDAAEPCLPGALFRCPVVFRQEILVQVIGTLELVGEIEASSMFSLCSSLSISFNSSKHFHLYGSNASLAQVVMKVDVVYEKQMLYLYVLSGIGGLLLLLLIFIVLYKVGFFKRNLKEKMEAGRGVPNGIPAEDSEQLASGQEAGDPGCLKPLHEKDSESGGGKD
T1 sequence (P05107 23-769): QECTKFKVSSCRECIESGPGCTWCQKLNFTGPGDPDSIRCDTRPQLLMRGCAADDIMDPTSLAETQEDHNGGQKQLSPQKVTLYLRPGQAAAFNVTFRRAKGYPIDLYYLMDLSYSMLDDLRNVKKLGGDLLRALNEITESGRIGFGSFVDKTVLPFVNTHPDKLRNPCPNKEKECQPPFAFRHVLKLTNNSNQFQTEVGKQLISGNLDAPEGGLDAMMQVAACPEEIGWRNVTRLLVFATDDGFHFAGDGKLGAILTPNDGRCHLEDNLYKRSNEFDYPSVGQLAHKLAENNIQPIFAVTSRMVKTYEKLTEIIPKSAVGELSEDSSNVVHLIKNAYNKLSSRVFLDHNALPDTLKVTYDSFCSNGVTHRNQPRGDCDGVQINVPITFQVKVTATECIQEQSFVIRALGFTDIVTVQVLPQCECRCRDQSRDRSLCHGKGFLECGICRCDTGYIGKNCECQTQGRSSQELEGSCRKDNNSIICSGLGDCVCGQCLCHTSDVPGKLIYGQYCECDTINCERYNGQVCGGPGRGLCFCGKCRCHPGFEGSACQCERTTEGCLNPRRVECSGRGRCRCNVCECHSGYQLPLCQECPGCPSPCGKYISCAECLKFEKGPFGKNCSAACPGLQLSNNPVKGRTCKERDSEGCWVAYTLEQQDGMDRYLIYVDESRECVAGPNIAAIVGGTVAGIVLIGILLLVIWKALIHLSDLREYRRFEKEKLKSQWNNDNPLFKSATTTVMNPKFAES

| Molecule | binding of MAb CL203 (in words) [1] | Cl203 % WT (SLFI) [1] [% WT] | SLFI (% CL203) RR/1 [2] [% CL203] | LFA-1 Binding % [3] [%] | SLFI (% CL203) R6.5 [4] [% CL203] | SLFI (% CL203) LB-2 [5] [% CL203] | HRV Binding % [6] [%] | decrease in LFA-1 binding [3, 7] [fold] | HRV14 binding of ICAM-1 mutant (in words) [6, 7] |
| --- | --- | --- | --- | --- | --- | --- | --- | --- | --- |
| Q27/L: ICAM-1 substitution mutant, Q27 to L (protein, UniProt P05362 28-532, looked up, variant Q27L) Intercellular adhesion …: QTSVSPSKVILPRGGSVLVTCSTSCDLPKLLGIETPLPKKELLLPGNNRKVYELSNVQEDSQPMCYSNCPDGQSTAKTFLTVYWTPERVELAPLPSWQPVGKNLTLRCQVEGGAPRANLTVVLLRGEKELKREPAVGEPAEVTTTVLVRRDHHGANFSCRTELDLRPQGLELFENTSAPYQLQTFVLPATPPQLVSPRVLEVDTQGTVVCSLDGLFPVSEAQVHLALGDQRLNPTVTYGNDSFSAKASVSVTAEDEGTQRLTCAVILGNQSQETLQTVTIYSFPAPNVILTKPEVSEGTEVTVKCEAHPRAKVTLNGVPAQPLGPRAQLLLKATPEDNGRSFSCSATLEVAGQLIHKNQTRELRVLYGPRLDERDCPGNWTWPENSQQTPMCQAWGNPLPELKCLKDGTFPLPIGESVTVTRDLEGTYLCRARSTQGEVTRKVTVNVLSPRYEIVIITVVAAAVIMGTAGLSTYLYNRQRKIKKYRLQQAQKGTPMKPNTQATPP | specifically reduced level of expression | 33 | 75 | 37 | 75 | 125 | 57 |  |  |
| Q73/H: ICAM-1 substitution mutant, Q73 to H (protein, UniProt P05362 28-532, looked up, variant Q73H) Intercellular adhesion …: QTSVSPSKVILPRGGSVLVTCSTSCDQPKLLGIETPLPKKELLLPGNNRKVYELSNVQEDSQPMCYSNCPDGHSTAKTFLTVYWTPERVELAPLPSWQPVGKNLTLRCQVEGGAPRANLTVVLLRGEKELKREPAVGEPAEVTTTVLVRRDHHGANFSCRTELDLRPQGLELFENTSAPYQLQTFVLPATPPQLVSPRVLEVDTQGTVVCSLDGLFPVSEAQVHLALGDQRLNPTVTYGNDSFSAKASVSVTAEDEGTQRLTCAVILGNQSQETLQTVTIYSFPAPNVILTKPEVSEGTEVTVKCEAHPRAKVTLNGVPAQPLGPRAQLLLKATPEDNGRSFSCSATLEVAGQLIHKNQTRELRVLYGPRLDERDCPGNWTWPENSQQTPMCQAWGNPLPELKCLKDGTFPLPIGESVTVTRDLEGTYLCRARSTQGEVTRKVTVNVLSPRYEIVIITVVAAAVIMGTAGLSTYLYNRQRKIKKYRLQQAQKGTPMKPNTQATPP |  | 139 | 21 | 12 | 80 | 80 | 117 | 10 | weak or a non-detectable affect on HRV binding |
| E90/K: ICAM-1 substitution mutant, E90 to K (protein, UniProt P05362 28-532, looked up, variant E90K) Intercellular adhesion …: QTSVSPSKVILPRGGSVLVTCSTSCDQPKLLGIETPLPKKELLLPGNNRKVYELSNVQEDSQPMCYSNCPDGQSTAKTFLTVYWTPERVKLAPLPSWQPVGKNLTLRCQVEGGAPRANLTVVLLRGEKELKREPAVGEPAEVTTTVLVRRDHHGANFSCRTELDLRPQGLELFENTSAPYQLQTFVLPATPPQLVSPRVLEVDTQGTVVCSLDGLFPVSEAQVHLALGDQRLNPTVTYGNDSFSAKASVSVTAEDEGTQRLTCAVILGNQSQETLQTVTIYSFPAPNVILTKPEVSEGTEVTVKCEAHPRAKVTLNGVPAQPLGPRAQLLLKATPEDNGRSFSCSATLEVAGQLIHKNQTRELRVLYGPRLDERDCPGNWTWPENSQQTPMCQAWGNPLPELKCLKDGTFPLPIGESVTVTRDLEGTYLCRARSTQGEVTRKVTVNVLSPRYEIVIITVVAAAVIMGTAGLSTYLYNRQRKIKKYRLQQAQKGTPMKPNTQATPP | specifically reduced level of expression | 29 | 100 | 34 | 123 | 108 | 50 |  |  |
